Test results reported in publication PMC7319042 (Structure (London, England : 1993), 2018).

Tests used:
[1] = biological target: Rev (Human immunodeficiency virus 1) (UniProt P04325); details: cited from earlier work
[2] = biological target: Rev116 (HIV-1, UniProt P04616 1-116); assay: analytical ultracentrifugation
[3] = biological target: HIV-1 Rev^93 (C-terminally truncated Rev, amino acids 1-93) (HIV-1, UniProt P04618); assay: crystal structure
[4] = biological target: HIV-1 Rev^116 (full-length wild-type Rev) (HIV-1, UniProt P04618); assay: light scattering at 320 nm of the
[5] = biological target: T1, HIV-1 Rev^116 (full-length wild-type Rev) (HIV-1), P04618; assay: light scattering at 320 nm of thermally induced assembly; details: remark: other sources report otherwise
T1 chain: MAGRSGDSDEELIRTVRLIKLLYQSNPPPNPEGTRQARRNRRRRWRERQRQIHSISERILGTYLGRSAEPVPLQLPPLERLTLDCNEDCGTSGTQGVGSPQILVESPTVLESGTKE

[6] = biological target: T1, HIV-1 Rev^116 (full-length wild-type …); assay: AUC; details: remark: other sources report otherwise

Q: Which Kd [1] does the source give for Rev (from UniProt P04325) here?
A: The Kd was 1000 nM.

B1: RBA-14 (structured_RNA)
RNA: GGCUGGACUCGUACUUCGGUACUGGAGAAACAGCC
Q: Does B1 bind [2]?
A: Result: binds

B2: chimeric rabbit/human scFv SJS-R1 (anti-Rev single-chain variable fragment) (scFv, V domains shown)
VH: QEQLVESGGRLVTPGTALTLTCKVSGFSLSGFWLNWVRQAPGKGLEWVGAIYRGSGSEWYASWAKGRFTISDTSTTVTLKLTSPTTEDTATYFCAADTTDNGYFTIWGPGTLVTVSS
VL: ELVMTQTPSSVSEPVGGTVTIKCQASQSISSWLSWYQQKPGQPPKLLIYDASNLASGVPSRFMGSGSGTEYTLTISGVQREDAATYYCLGGYPAASYRTAFGGGTELEII
Q: Does B2 bind [3]?
A: Result: binds

Q: Does B2 bind [4]?
A: Result: binds

B3: HIV-1 Rev^116 (full-length wild-type Rev), P04618 1-116 (natural protein)
chain: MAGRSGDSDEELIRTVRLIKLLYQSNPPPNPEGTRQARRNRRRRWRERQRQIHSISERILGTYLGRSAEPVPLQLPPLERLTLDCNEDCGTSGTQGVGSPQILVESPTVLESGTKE
Q: Which critical concentration (Cr) of polymer formation [5] does the source give for B3 here?
A: The critical concentration (Cr) of polymer formation was 11 µM.

Q: And the stoichiometry N [6]?
A: The stoichiometry N was 4.
